The results in this text go back to article PMC10172135.

One may read the stoichiometry N as the number of molecules, sites or subunits per partner or assembly.

For assay [1], the target named is FRP-like protein (FRPL) from Pseudomonas borbori (Pseudomonas borbori). The assay can be described thus: native MS; 4 µM (monomer) in 200 mM ammonium acetate pH 6.8, Q Exactive, positive ion mode.
In assay [2] the target is orange carotenoid protein OCP1 from Synechocystis sp. PCC 6803 (Synechocystis sp. PCC 6803).

Consider “FRP-like protein (FRPL) from Pseudomonas borbori (natural protein)”, for which the stoichiometry N in assay [1] was found to be 2.

Turning to “FRPL from a delta-proteobacterium of the Desulfobacteraceae family (natural protein)”, the acceleration of OCP1’s recovery from photoconversion (20 °C, equimolar ratio of OCP1 to FRPL), compared to OCP1 alone in assay [2] was found to be 93%.
